Test results taken from patent publication US20140274782A1, “AFFINITY REAGENTS AND METHODS FOR DETECTION, PURIFICATION, AND PROTEOMIC ANALYSIS OF METHYLATED PROTEINS” (The Board of Trustees of the Leland Stanford Junior …, priority 2013, published 2014).

T1: G9a and GLP (Homo sapiens, UniProt Q96KQ7+Q9H9B1)
T1 sequence (Q96KQ7 2-1210 limits assumed): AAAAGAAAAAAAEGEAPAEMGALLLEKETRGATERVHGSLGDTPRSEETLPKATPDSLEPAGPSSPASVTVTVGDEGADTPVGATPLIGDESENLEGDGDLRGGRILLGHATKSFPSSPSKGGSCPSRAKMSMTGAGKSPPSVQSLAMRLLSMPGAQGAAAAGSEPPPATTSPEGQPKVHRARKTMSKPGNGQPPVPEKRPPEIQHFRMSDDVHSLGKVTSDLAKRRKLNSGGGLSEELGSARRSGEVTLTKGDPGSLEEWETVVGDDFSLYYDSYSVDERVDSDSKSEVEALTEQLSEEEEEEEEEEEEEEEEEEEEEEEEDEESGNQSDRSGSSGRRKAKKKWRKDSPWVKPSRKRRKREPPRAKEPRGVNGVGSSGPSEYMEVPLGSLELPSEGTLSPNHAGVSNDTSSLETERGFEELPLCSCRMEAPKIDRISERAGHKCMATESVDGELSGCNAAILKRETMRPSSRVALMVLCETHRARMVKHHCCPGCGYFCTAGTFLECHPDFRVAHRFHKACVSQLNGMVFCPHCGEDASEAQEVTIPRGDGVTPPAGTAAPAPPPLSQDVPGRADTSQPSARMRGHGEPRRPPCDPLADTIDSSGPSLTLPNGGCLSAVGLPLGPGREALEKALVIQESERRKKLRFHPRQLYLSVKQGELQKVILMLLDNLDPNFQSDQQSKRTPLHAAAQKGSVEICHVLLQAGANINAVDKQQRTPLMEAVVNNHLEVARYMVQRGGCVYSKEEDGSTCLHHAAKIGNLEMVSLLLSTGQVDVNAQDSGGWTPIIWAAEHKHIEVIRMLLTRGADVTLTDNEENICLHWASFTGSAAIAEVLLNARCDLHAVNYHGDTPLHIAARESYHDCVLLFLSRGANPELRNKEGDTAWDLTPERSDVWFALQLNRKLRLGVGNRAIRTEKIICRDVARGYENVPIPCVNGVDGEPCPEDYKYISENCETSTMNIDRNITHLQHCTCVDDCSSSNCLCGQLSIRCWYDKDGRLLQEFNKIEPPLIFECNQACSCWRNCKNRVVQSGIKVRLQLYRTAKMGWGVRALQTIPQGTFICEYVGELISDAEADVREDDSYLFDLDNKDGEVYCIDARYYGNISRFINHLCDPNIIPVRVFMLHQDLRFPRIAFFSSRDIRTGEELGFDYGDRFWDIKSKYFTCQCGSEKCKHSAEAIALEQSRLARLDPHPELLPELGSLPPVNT
T1 sequence (Q9H9B1 2-1298 limits assumed): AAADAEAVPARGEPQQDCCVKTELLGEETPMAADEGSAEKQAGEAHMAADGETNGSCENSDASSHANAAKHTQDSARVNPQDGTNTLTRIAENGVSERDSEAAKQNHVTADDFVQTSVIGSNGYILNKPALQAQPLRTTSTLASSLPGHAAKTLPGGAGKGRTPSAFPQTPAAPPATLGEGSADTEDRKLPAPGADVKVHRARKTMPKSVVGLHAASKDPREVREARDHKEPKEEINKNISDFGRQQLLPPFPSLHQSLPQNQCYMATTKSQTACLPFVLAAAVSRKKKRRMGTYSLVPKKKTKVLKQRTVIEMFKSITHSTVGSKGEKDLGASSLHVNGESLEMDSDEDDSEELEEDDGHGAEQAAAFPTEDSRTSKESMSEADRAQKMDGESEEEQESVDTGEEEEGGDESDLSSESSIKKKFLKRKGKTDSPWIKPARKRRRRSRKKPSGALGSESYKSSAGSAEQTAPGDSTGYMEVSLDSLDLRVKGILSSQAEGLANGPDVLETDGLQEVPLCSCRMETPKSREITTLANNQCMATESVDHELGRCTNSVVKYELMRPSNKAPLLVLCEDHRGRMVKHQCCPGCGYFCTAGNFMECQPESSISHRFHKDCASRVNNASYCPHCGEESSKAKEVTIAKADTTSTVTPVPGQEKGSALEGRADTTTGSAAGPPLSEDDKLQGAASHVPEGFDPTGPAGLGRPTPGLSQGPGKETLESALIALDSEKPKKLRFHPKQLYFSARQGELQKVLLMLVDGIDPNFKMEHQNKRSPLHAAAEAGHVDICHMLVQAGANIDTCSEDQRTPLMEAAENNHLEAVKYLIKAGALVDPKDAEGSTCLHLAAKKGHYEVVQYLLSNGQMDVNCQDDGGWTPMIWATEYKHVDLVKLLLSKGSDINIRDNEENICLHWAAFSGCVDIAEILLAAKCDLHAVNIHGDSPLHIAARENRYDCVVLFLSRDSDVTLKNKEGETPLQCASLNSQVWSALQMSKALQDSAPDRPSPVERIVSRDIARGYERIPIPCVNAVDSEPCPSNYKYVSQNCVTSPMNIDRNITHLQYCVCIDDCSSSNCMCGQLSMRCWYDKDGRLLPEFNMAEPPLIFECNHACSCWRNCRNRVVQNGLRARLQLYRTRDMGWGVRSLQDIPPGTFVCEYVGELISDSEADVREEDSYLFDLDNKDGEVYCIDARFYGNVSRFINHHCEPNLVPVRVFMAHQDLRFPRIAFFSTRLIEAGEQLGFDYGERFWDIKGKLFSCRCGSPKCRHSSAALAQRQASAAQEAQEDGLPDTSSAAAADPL

B1: ORC5 (protein, UniProt O43913 1-435, looked up)
Origin recognition complex …: MPHLENVVLCRESQVSILQSLFGERHHFSFPSIFIYGHTASGKTYVTQTLLKTLELPHVFVNCVECFTLRLLLEQILNKLNHLSSSEDGCSTEITCETFNDFVRLFKQVTTAENLKDQTVYIVLDKAEYLRDMEANLLPGFLRLQELADRNVTVLFLSEIVWEKFRPNTGCFEPFVLYFPDYSIGNLQKILSHDHPPEYSADFYAAYINILLGVFYTVCRDLKELRHLAVLNFPKYCEPVVKGEASERDTRKLWRNIEPHLKKAMQTVYLREISSSQWEKLQKDDTDPGQLKGLSAHTHVELPYYSKFILIAAYLASYNPARTDKRFFLKHHGKIKKTNFLKKHEKTSNHLLGPKPFPLDRLLAILYSIVDSRVAPTANIFSQITSLVTLQLLTLVGHDDQLDGPKYKCTVSLDFIRAIARTVNFDIIKYLYDFL
B2: LANCL2 (protein, UniProt Q9NS86 2-450, looked up)
LanC-like protein 2: GETMSKRLKLHLGGEAEMEERAFVNPFPDYEAAAGALLASGAAEETGCVRPPATTDEPGLPFHQDGKIIHNFIRRIQTKIKDLLQQMEEGLKTADPHDCSAYTGWTGIALLYLQLYRVTCDQTYLLRSLDYVKRTLRNLNGRRVTFLCGDAGPLAVGAVIYHKLRSDCESQECVTKLLQLQRSVVCQESDLPDELLYGRAGYLYALLYLNTEIGPGTVCESAIKEVVNAIIESGKTLSREERKTERCPLLYQWHRKQYVGAAHGMAGIYYMLMQPAAKVDQETLTEMVKPSIDYVRHKKFRSGNYPSSLSNETDRLVHWCHGAPGVIHMLMQAYKVFKEEKYLKEAMECSDVIWQRGLLRKGYGICHGTAGNGYSFLSLYRLTQDKKYLYRACKFAEWCLDYGAHGCRIPDRPYSLFEGMAGAIHFLSDVLGPETSRFPAFELDSSKRD
B3: DUSP3 (protein, UniProt P51452 1-185, looked up)
Dual specificity protein …: MSGSFELSVQDLNDLLSDGSGCYSLPSQPCNEVTPRIYVGNASVAQDIPKLQKLGITHVLNAAEGRSFMHVNTNANFYKDSGITYLGIKANDTQEFNLSAYFERAADFIDQALAQKNGRVLVHCREGYSRSPTLVIAYLMMRQKMDVKSALSIVRQNREIGPNDGFLAQLCQLNDRLAKEGKLKP
B4: EEF1B2 (protein, UniProt P24534 2-225, looked up)
Elongation factor 1-beta: GFGDLKSPAGLQVLNDYLADKSYIEGYVPSQADVAVFEAVSSPPPADLCHALRWYNHIKSYEKEKASLPGVKKALGKYGPADVEDTTGSGATDSKDDDDIDLFGSDDEEESEEAKRLREERLAQYESKKAKKPALVAKSSILLDVKPWDDETDMAKLEECVRSIQADGLVWGSSKLVPVGYGIKKLQIQCVVEDDKVGTDMLEEQITAFEDYVQSMDVAAFNKI
B5: SERBP1 (protein, UniProt Q8NC51 2-408, looked up)
SERPINE1 mRNA-binding protein …: PGHLQEGFGCVVTNRFDQLFDDESDPFEVLKAAENKKKEAGGGGVGGPGAKSAAQAAAQTNSNAAGKQLRKESQKDRKNPLPPSVGVVDKKEETQPPVALKKEGIRRVGRRPDQQLQGEGKIIDRRPERRPPRERRFEKPLEEKGEGGEFSVDRPIIDRPIRGRGGLGRGRGGRGRGMGRGDGFDSRGKREFDRHSGSDRSSFSHYSGLKHEDKRGGSGSHNWGTVKDELTESPKYIQKQISYNYSDLDQSNVTEETPEGEEHHPVADTENKENEVEEVKEEGPKEMTLDEWKAIQNKDRAKVEFNIRKPNEGADGQWKKGFVLHKSKSEEAHAEDSVMDHHFRKPANDITSQLEINFGDLGRPGRGGRGGRGGRGRGGRPNRGSRTDKSSASAPDVDDPEAFPALA

How the values were obtained:
[1] = biological target: T1, G9a and GLP; test: Triple SILAC pull-down after UNC0638 treatment of 293T cells, DMSO/UNC0638 ratio of protein captured by 3×MBT; type: cell-based; parameters: cells were treated for 24 hours with UNC0638 at 2.5 μM or DMSO vehicle control; endogenous in cells; host or cells: HEK 293T; conditions: all values in log base 2; for Relative to UNC0638 UNC Heavy / Relative to UNC0638 UNC Light: SILAC ratio DMSO relative to UNC0638, pull-down with 3xMBT; for Relative to UNC0638 UNC Heavy: UNC0638 in heavy SILAC media; for Relative to UNC0638 UNC Light: UNC0638 in light SILAC media; for Relative to UNC0638 Average: average of UNC Light and UNC Heavy experiments;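 on all read-outs here: mass spectrometry (Q-Exactive) SILAC quantitation, DMSO/UNC0638 ratio computed after subtracting 3×MBTD355N mutant pull-down background, only proteins with at least twofold 3×MBT over mutant signal considered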
[2] = test system: 3×MBT domain of L3MBTL1; test: Triple SILAC pull-down, 3xMBT/3xMBTD355N ratio (cytoplasmic, nuclear and chromatin fractions of 293T cells); type: binding, human; conditions: SILAC ratio 3xMBT vs 3xMBTD355N pull-down, 293T cells, all values in log base 2; for 3xMBT/D355N UNC Heavy: experiment with UNC0638 in heavy SILAC media; for 3xMBT/D355N UNC Light: experiment with UNC0638 in light SILAC media;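 on all read-outs here: proteins quantified with MaxQuant, requiring at least two unique peptides and quantification in both label directions, normalized to the mean of proteins from a digested loading control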
Method: For stable isotope labeling by amino acids in cell culture (SILAC) experiments HEK 293T cells were grown for at least six doublings in DMEM for SILAC supplemented with 10% dialyzed fetal bovine serum (FBS), 230 mg/L L-proline and either 100 mg/L each of L-lysine and L-arginine (“light” medium), D4-L-lysine and ^13C6-L-arginine (“medium” media), or ^13C6^15N2-L-lysine and ^13C6^15N4-L-arginine (Thermo Scientific). Heavy methyl labeling used DMEM without L-Methionine or L-Cysteine supplemented with D3^13C-L-Methionine (Sigma), L-Cysteine (Sigma) and 10% dialyzed FBS.
For UNC0638 treatments cells were treated for 24 hours with UNC0638 at 2.5 μM or DMSO vehicle control. One experiment treated cells in light media with UNC0638, the other treated cells in heavy media. Both experiments included cells in medium media treated with DMSO for negative control pull-down with 3×MBTD355N.
UNC0638 treatment experiments used a Q-Exactive mass spectrometer (ThermoFisher Scientific). A 25 cm HPLC column with 3 μm Reliasil (Orochem) was used to separate peptides over a 4 hour gradient from 0 to 75% acetonitrile. Ions were generated using a custom nanospray source flowing at 250 nL/minute. Mass spectrometry settings were 70,000 MS1 resolution, data dependent selection of up to 20 precursor ions per cycle, dynamic exclusion of 30 seconds and isolation window of 2 m/z. The nuclear fraction from the experiment using UNC0638 on cells in heavy media was additionally analyzed by 2D HPLC-MS/MS as described earlier.
Peptides were identified and quantified using MaxQuant version 1.2.2.5 (Cox and Mann, supra) with the following changes to default settings: mono- and di-methylation of lysine, and oxidation of methionine, and N-terminal acetylation as variable modifications, disabled “I=L”, up to three modifications per peptide, one missed cleavage, maximum charge of 5. Protein and peptide FDR were set to 1%, and proteins were filtered post-hoc for at least two unique peptides. Proteins were excluded from an experiment if they were not quantified in both labeling directions. Because FDR is unreliable for small numbers of peptides the modification site FDR was set to 10% and all methylated peptides were manually verified. […] Quantitative protein data was normalized to the mean value among proteins identified by analyzing 50 ng of digested loading control.
For UNC0638 experiments the treated vs. untreated ratio was determined by subtracting the value from 3×MBTD355N prior to dividing values from the light and heavy channels. Only proteins showing a two-fold signal to background ratio (3×MBT/3×MBTD355N) were evaluated as potential G9a/GLP substrates.

Molecule | Relative to UNC0638 UNC Heavy [1] [log base 2] | Relative to UNC0638 UNC Light [1] [log base 2] | Relative to UNC0638 Average [1] [log base 2] | 3xMBT/D355N UNC Heavy [2] [log base 2] | 3xMBT/D355N UNC Light [2] [log base 2]
B1 | −2.12 | 0.06 | −1.03 | 1.97 | 2.52
B2 | −0.05 | −0.26 | −0.16 | 1.44 | 1.81
B3 | 0.47 | −1.35 | −0.44 | 1.97 | 1.19
B4 | 0.01 | −0.64 | −0.31 | −0.81 | −0.32
B5 | −0.45 | – | −0.45 | −0.66 | −0.06
